One block for each molecule: values may come before it.
Tests used:
[1] = system: acid-pretreated corn stover; experiment: Shake flask saccharification with CF-416 whole broth enzymes with 0 or 50 μM CuSO4 at pH 5.0 or pH 6.0 (FIG. 4); format: biochemical; details: 50 μM vs 0 CuSO4; for increase in glucose yields: CF-416 whole broth enzymes 0.81%, 72 hours, 55° C.
Experimental: This Example describes experiments designed to determine the effects of added copper in saccharification reactions. The saccharification reactions were run in 30g shake flasks (250 mL flasks) using 82g/kg glucan of acid-pretreated corn stover and whole broth enzymes produced by M. thermophila strain CF-416 (produced using standard methods known in the art) at a 0.81% total enzyme load with respect to glucan. […] A pH trim was also performed using 2M NaOH at time intervals of 1, 4, 7, 22, 24 29, 46, 52, 70, 75 and 96 hrs, to maintain the pH at the desired value of pH 5.0 or pH 6.0. Samples were removed at 72 hours and the total amount of glucose in the reaction mixture was determined using standard HPLC methods and equipment as known in the art.

[2] = system: phosphoric acid swollen cellulose (PASC); experiment: GH61a Variant 1 plus beta-glucosidase with reducing agents or pretreatment filtrate on PASC (FIG. 5B); format: biochemical; details: 0.3% GH61a Variant 1, 0.08% BGL, 30 μM CuSO4, 48 h, pH 5, 55° C.
Experimental: (§1) This Example provides experiments conducted to determine the effect of adding reducing agents (e.g., gallic acid and ascorbic acid) to saccharification reactions. In these experiments, enhancement of GH61 activity was tested using Variant 1 (SEQ ID NO:5) in the presence of reducing agents (specifically, ascorbic acid or gallic acid) and pretreatment filtrate, which contains various reducing agents from lignin degradation. Reactions were performed on cellulosic substrates, AVICEL® PH microcrystalline cellulose and phosphoric acid swollen cellulose (PASC), with purified M. thermophila-produced GH61 Variant 1 and beta-glucosidase at 0.3% and 0.08% respectively, with respect to substrate glucan mass, and 128 mM sodium acetate buffer (pH 5) supplemented with 30 μM CuSO4. Thus, reactions were performed with 0.3% GH61a and 0.08% BGL, where % enzyme loads are with respect to substrate glucan mass (36 g/L AVICEL® cellulose and 5 g/L PASC). Background (negative) controls were beta-glucosidase-only reactions tested in the absence of GH61a. Glucose production after 48 h incubation at pH 5, 55° C. was determined by glucose oxidase/peroxidase-based or HPLC-based glucose assay glucose assay, using methods known in the art. […] Filtrate dilutions are indicated in this Figure, where undiluted filtrate equals 72% of the total reaction volume. […]

[3] = system: AVICEL® PH microcrystalline cellulose; experiment: GH61a Variant 1 plus beta-glucosidase with reducing agents or pretreatment filtrate on AVICEL (FIG. 5A); format: biochemical; details: 0.3% GH61a Variant 1, 0.08% BGL, 30 μM CuSO4, 48 h, pH 5, 55° C.
Experimental: as §1

[4] = system: M. thermophila CF-416 whole broth cellulases; details: 87g/kg glucan, 0.81% enzyme load, pH 5.0, 55° C., 50 μM CuSO4, 72 hours
pre-treated wheat straw [5] = experiment: Biomass assay of a cellulase mixture (GH61a, CBH1a, CBH2b, BGL) with surfactants (FIG. 6); format: biochemical; details: BGL at 0.3%, 0.15%, 0.08%, 55° C., 72 hours, pH 5
Experimental: This example illustrates the enhancement of overall saccharification yield with the addition of surfactants such as TWEEN®-20 and PEG-4000. Experiments were designed to monitor the enhancement in cellulase activity with different concentrations of TWEEN®-20 or PEG-4000 in the biomass assay. The biomass assay was performed in a total volume of 90 μL, including 10 mg of pre-treated wheat straw, 64.8 μL (72% by volume) of filtrate (or H2O for no filtrate conditions), and 11.6 μl, of a mixture of sodium acetate buffer (pH 5.0, supplemented with CuSO4), M. thermophila-produced cellobiohydrolase 1a (CBH1a), cellobiohydrolase 2b (CBH2b), beta-glucosidase (BGL), and glycoside hydrolase type 61 (GH61a). The final concentration of sodium acetate was 128 mM (with 30 μM CuSO4) and the enzyme loads of CBH1a, CBH2b, BGL and GH61a were 0.15%, 0.15%, 0.08% and 0.3% with respect to the substrate glucan mass in the biomass substrate, respectively. Water was used in place of the enzymes as a negative control. […]
Data shown are total glucose produced by a mixture of GH61a, CBH1a, CBH2b, and BGL at 0.3%, 0.15%, 0.15%, and 0.08% with respect to the substrate glucan mass in the biomass substrate, respectively. In this Figure, TWEEN®-20 concentrations are expressed as % total reaction volume.
In this Figure, PEG-4000 concentrations are expressed as % total reaction volume.

crystalline cellulose = experiment: Saccharification of crystalline cellulose by cellulase enzymes in culture broth from M. thermophila cells with GH61a added (FIG. 1); format: biochemical; details: GH61a added to cellulases of M. thermophila culture broth
Experimental: FIG. 1 provides results of an experiment using recombinantly produced GH61a protein having the sequence shown in SEQ ID NO:2. The protein was tested for its ability to promote the activity of cellulases present in culture broth of M. thermophila.
A protein from a strain of M. thermophila having the amino acid sequence provided in SEQ ID NO:2 was previously identified as having GH61 activity. It was designated “GH61a”.

pre-treated wheat straw [6] = experiment: Biomass assay of GH61a pre-incubated with or supplemented by copper(II) (FIG. 3); format: biochemical; details: pre-incubated with copper(II) (CuSO4) 0 to 100 μM, 72 h, pH 5, 55° C.
Experimental: Purified M. thermophila-produced GH61a or S. cerevisiae supernatant containing M. thermophila-GH61a was pre-incubated with different amounts of copper(II) (CuSO4) at concentrations of 0 to 100 μM at ambient temperature for 30 min. The biomass assay was then performed in a total volume of 300 μL, in the presence of 10 mg of pre-treated wheat straw, using 261 μL of copper-treated GH61 samples, 39 μL of sodium acetate buffer (pH 5), M. thermophila-produced CBH1a, CBH2b and β-glucosidase. The final concentration of sodium acetate was 120 mM and the enzyme loads of CBHs and β-glucosidase (CBH1a and CBH2b in 1:1 ratio) were 0.01% and 0.02% with respect to substrate glucan mass in the biomass substrate, respectively. Background (negative) controls were obtained by using either water or media supernatant from cultures of S. cerevisiae cells without the GH61a gene in the plasmid. Thus, the negative controls represent activities of CBH1a, CBH2b and beta-glucosidase in the absence of GH61a. The reaction was incubated at 55° C. for 72 hours with shaking.
Some experiments were also performed without pre-incubating GH61 with copper(II), but instead, by directly adding different amounts of copper(II) (CuSO4) to the biomass assay reactions as described herein.
Biomass assays were performed with (A) S. cerevisiae-produced M. thermophila GH61a Variant 5, and (B) M. thermophila-produced wild-type GH61a. Glucose production after 72 h incubation at pH 5, 55° C. was determined by the glucose assay. The data in this Figure indicate GH61a-only activity, in which the amount of glucose produced in control reaction containing CBH and β-glucosidase was subtracted from the total amount of glucose produced in the reactions with GH61a. In this Figure, N=4; and the error bars represent ±1 standard deviation. Copper concentrations shown are with respect to the total reaction volume.

[7] = system: pretreated wheat straw (PWS); experiment: Supplementation of CF-416 whole cellulase broth with single purified enzymes, saccharification of pretreated wheat straw; format: biochemical; details: 0.4% single enzyme added to 0.5% CF-416 whole cellulase broth base
Experimental: (§2) In this Example, M. thermophila-produced and purified GH61a, GH61p, GH61f, GH61n, CBH1a, CBH2b, AXE3, FAE, and Xyl3, were used to supplement the activity present in culture broths (i.e., “whole broth cellulase base”) of the M. thermophila strain CF-416 prepared using standard methods known in the art. The broth cellulase base was fixed to 0.5% protein and the single purified enzyme was added at 0.4% (wt added protein/wt glucan) to the saccharification reactions. The whole cellulase broth base and individual enzymes were characterized by standard BCA assays for total protein quantification.
(§3) The saccharification reactions were carried out at 74 g/L glucan load of pretreated wheat straw (PWS) or pretreated corn stover (PCS) at pH 5.0, 55° C. at 950 rpm in the presence of 50 μM copper in high throughput (HTP) 96 deep well plates. Glucose analysis was carried out by the glucose oxidase assay as described above. In each case, the fold improvement was calculated using the formula Fold Improvement=[Total Glucose Production with addition of 0.4% single enzyme to the whole cellulase broth base]/[glucose production from the 0.5% whole cellulase broth base]. In this Table, the fold improvements were ranked from 0 to 3; fold improvements less than 1.2× are indicated by “0,” fold improvements of >1.2 to <1.5 are indicated by “1,” fold improvements of ≧1.5× to <1.7× improvements are indicated by “2,” and fold improvements ≧1.7 are indicated by “3.”

[8] = system: pretreated corn stover (PCS); experiment: Supplementation of CF-416 whole cellulase broth with single purified enzymes, saccharification of pretreated corn stover; format: biochemical; details: 0.4% single enzyme added to 0.5% CF-416 whole cellulase broth base; 74 g/L glucan, pH 5.0, 55° C., 50 μM copper
Experimental: as §2, §3

- total amounts of C5 sugars produced ([1]; FIG. 4, Panel B): may cause a decrease
- increase in glucose yields ([1]; saccharification pH 5.0): ~3.5%
- increase in glucose yields ([1]; saccharification pH 6.0): not observed
Molecule: O=S(=O)([O-])[O-].[Cu+2] [copper(II), CuSO4]

- GH61 activity in generating soluble sugars from PASC [2]: improved
- GH61 activity in generating soluble sugars from AVICEL® cellulose [3]: improved
Molecule: O=C(O)c1cc(O)c(O)c(O)c1 [gallic acid]

Molecule: O=O [oxygen]
- glucose yields, closed flask vs flask opened at 4 hrs and 24 hrs for fresh air [4]: not a limiting factor

- total glucose production in the saccharification reaction (pre-treated wheat straw [5]): enhanced
Molecule: TWEEN®-20

- improvement over whole cellulase broth on PWS, in words [7]: greatest benefit
- Fold Improvement Over Whole Cellulase Broth Tested on PWS ([7]; 74 g/L glucan, pH 5.0, 55° C., 50 μM copper): 3 (fold improvements ≧1.7)
- Fold Improvement Over Whole Cellulase Broth Tested on PCS [8]: 2 (fold improvements of ≧1.5× to <1.7×)
B1: GH61a: Wild-type M. thermophila C1 GH61a polypeptide (SEQ ID NO:2) (protein, listed as Myceliophthora thermophila)
chain: MSKASALLAGLTGAALVAAHGHVSHIVVNGVYYRNYDPTTDWYQPNPPTVIGWTAADQDNGFVEPNSFGTPDIICHKSATPGGGHATVAAGDKINIVWTPEWPESHIGPVIDYLAACNGDCETVDKSSLRWFKIDGAGYDKAAGRWAADALRANGNSWLVQIPSDLKAGNYVLRHEIIALHGAQSPNGAQAYPQCINLRVTGGGSNLPSGVAGTSLYKATDPGILFNPYVSSPDYTVPGPALIAGAASSIAQSTSVATATGTATVPGGGGANPTATTTAATSAAPSTTLRTTTTSAAQTTAPPSGDVQTKYGQCGGNGWTGPTVCAPGSSCSVLNEWYSQCL
- glucose yield (crystalline cellulose): improvement in glucose yield
- GH61a-only activity (glucose production) when Cu^++ is included in the reaction (pre-treated wheat straw [6]; listed as M. thermophila-produced GH61a): improved
- GH61a-only activity (glucose production) when Cu^++ is included in the reaction (pre-treated wheat straw [6]; listed as wild-type GH61a): increase

B2: E104H/K167A (protein)
chain: MSKASALLAGLTGAALVAAHGHVSHIVVNGVYYRNYDPTTDWYQPNPPTVIGWTAADQDNGFVEPNSFGTPDIICHKSATPGGGHATVAAGDKINIVWTPEWPHSHIGPVIDYLAACNGDCETVDKSSLRWFKIDGAGYDKAAGRWAADALRANGNSWLVQIPSDLAAGNYVLRHEIIALHGAQSPNGAQAYPQCINLRVTGGGSNLPSGVAGTSLYKATDPGILFNPYVSSPDYTVPGPALIAGAASSIAQSTSVATATGTATVPGGGGANPTATTTAATSAAPSTTLRTTTTSAAQTTAPPSGDVQTKYGQCGGNGWTGPTVCAPGSSCSVLNEWYSQCL
- GH61a-only activity (glucose production) when Cu^++ is included in the reaction (pre-treated wheat straw [6]): increase
- GH61a-only activity (glucose production) when Cu^++ is included in the reaction (pre-treated wheat straw [6]; listed as S. cerevisiae supernatant containing M. thermophila-GH61a): improved
